Measurements published in doi:10.1101/2021.02.17.431740.

Experiments:
[1] = target: HA-tagged PEAK3 Y24 mutant (SH2 binding motif mutant; DKO MCF-10A cells) (UniProt Q6ZS72); experiment: co-IP
[2] = target: HA-tagged PEAK3 SH3(1) mutant (DKO MCF-10A cells) (UniProt Q6ZS72); experiment: co-IP

Sequence of PYK2 (MCF-10A cells) (Q14289 whole entry): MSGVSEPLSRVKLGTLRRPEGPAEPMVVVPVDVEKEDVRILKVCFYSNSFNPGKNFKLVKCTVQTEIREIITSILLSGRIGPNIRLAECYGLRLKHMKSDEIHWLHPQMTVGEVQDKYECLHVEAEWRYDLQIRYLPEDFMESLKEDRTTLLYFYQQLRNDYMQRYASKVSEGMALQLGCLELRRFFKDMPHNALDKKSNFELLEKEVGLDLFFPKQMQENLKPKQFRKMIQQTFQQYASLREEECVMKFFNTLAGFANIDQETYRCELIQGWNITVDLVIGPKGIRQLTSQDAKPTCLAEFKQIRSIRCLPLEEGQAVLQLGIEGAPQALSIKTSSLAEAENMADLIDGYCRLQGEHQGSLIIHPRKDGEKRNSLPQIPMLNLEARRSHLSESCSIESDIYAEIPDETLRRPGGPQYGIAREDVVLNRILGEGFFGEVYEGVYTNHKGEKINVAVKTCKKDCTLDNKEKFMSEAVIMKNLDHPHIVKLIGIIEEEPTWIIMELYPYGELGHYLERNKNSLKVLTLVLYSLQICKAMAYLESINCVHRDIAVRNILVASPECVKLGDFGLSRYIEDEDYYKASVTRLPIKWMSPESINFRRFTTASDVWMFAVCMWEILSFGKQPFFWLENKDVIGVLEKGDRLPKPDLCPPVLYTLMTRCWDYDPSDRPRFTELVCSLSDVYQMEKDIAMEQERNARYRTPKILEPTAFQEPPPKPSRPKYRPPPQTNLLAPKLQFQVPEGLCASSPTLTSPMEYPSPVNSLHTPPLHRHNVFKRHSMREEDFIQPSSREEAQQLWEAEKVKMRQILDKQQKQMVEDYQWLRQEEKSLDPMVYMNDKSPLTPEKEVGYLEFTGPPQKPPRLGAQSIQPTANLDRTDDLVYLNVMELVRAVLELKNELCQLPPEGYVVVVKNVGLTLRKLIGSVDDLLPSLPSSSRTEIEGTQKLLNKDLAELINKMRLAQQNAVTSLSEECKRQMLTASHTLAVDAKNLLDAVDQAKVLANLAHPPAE
Sequence of CrkII (MCF-10A cells) (P46108 whole entry): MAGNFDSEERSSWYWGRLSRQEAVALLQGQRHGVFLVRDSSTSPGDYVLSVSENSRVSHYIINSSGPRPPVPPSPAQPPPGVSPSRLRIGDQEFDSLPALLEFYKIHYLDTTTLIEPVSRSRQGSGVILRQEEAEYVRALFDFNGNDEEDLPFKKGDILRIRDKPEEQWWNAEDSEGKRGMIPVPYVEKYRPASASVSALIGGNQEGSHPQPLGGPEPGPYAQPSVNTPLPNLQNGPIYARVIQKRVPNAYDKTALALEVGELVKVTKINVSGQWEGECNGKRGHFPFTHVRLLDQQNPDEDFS

Substance	association relative to WT PEAK3 (control) [1]	recruitment relative to WT PEAK3 [2]
CrkII (MCF-10A cells) (from UniProt P46108-1 1-304) (natural protein)	40 % of control	–
PYK2 (MCF-10A cells) (from UniProt Q14289 1-1009) (natural protein)	–	50%
